Test results reported in paper PMC6197226, “ZZ-dependent regulation of p62/SQSTM1 in autophagy” (Nature Communications, 2018).

Molecular target: T1, p62 ZZ domain (aa 115-190) (human, UniProt Q13501 115-190)
T1 construct: p62/SQSTM1 ZZ domain, human, aa 115-190; uniformly 15N-labeled for NMR; unlabeled for MST; also called p62_(ZZ (115-190)); source: E. coli BL21 (DE3) RIL, purified (glutathione Sepharose, size exclusion)
Assay: MST; displacement assay: unlabeled peptide added to a preformed complex of 40 uM ZZ (aa 115-190) and 80 nM FAM-labeled peptide; Ki from IC50, called Kd in the text; 10 mM HEPES pH 7.4, 150 mM NaCl, 1 mM TCEP; triplicates
Conditions: both partners purified

B1: K100EKKECRRDHR110 (p62_(100-110)) peptide (peptide)
peptide: KEKKECRRDHR
notes: p62/SQSTM1 regulatory linker between PB1 and ZZ, aa 100-110; also called RL peptide; RL; source: synthetic peptide (SynPeptide or KE BioChem)
Kd: 320 µM
